No end group written: not given here. *: point of attachment. Biotin = O=C1N[C@H]2[C@H](CS[C@H]2CCCCC(=O)*)N1
T1: ET140-p23 (human, cysteine pairing not given here)
T1 construct: also called peptide 23
T1 peptide: Biotin-SGSGCQLRCSSNTPPLTCQ

T2: ET140-p28 (human, cysteine pairing not given here)
T2 construct: also called peptide 28
T2 peptide: Biotin-SGSGSSNTPPLTCQRYCNA

T3: ET140-p22 (human, cysteine pairing not given here)
T3 construct: also called peptide 22
T3 peptide: Biotin-SGSGPCQLRCSSNTPPLTC

T4: ET140-p9 (human, cysteine pairing not given here)
T4 construct: also called peptide 9
T4 peptide: Biotin-SGSGQNEYFDSLLHACIPC

T5: ET140-p33 (human, cysteine pairing not given here)
T5 construct: also called peptide 33
T5 peptide: Biotin-SGSGPLTCQRYCNASVTNS

T6: ET140-p21 (human, cysteine pairing not given here)
T6 construct: also called peptide 21
T6 peptide: Biotin-SGSGIPCQLRCSSNTPPLT

T7: ET140-p16 (human, cysteine pairing not given here)
T7 construct: also called peptide 16
T7 peptide: Biotin-SGSGLLHACIPCQLRCSSN

T8: ET140-p36 (human, cysteine pairing not given here)
T8 construct: also called peptide 36
T8 peptide: Biotin-SGSGCQRYCNASVTNSVKG

T9: ET140-p7 (human, cysteine pairing not given here)
T9 construct: also called peptide 7
T9 peptide: Biotin-SGSGCSQNEYFDSLLHACI

T10: ET140-p32 (human, cysteine pairing not given here)
T10 construct: also called peptide 32
T10 peptide: Biotin-SGSGPPLTCQRYCNASVTN

T11: ET140-p11 (human, cysteine pairing not given here)
T11 construct: also called peptide 11; ET140-pll
T11 peptide: Biotin-SGSGEYFDSLLHACIPCQL

T12: ET140-p15 (human, cysteine pairing not given here)
T12 construct: also called peptide 15
T12 peptide: Biotin-SGSGSLLHACIPCQLRCSS

T13: ET140-p39 (human)
T13 construct: also called peptide 39
T13 peptide: Biotin-SGSGYCNASVTNSVKGTNA

T14: ET140-p10 (human, cysteine pairing not given here)
T14 construct: also called peptide 10
T14 peptide: Biotin-SGSGNEYFDSLLHACIPCQ

T15: ET140-p24 (human, cysteine pairing not given here)
T15 construct: also called peptide 24
T15 peptide: Biotin-SGSGQLRCSSNTPPLTCQR

T16: ET140-p20 (human, cysteine pairing not given here)
T16 construct: also called peptide 20
T16 peptide: Biotin-SGSGCIPCQLRCSSNTPPL

T17: ET140-p37 (human)
T17 construct: also called peptide 37
T17 peptide: Biotin-SGSGQRYCNASVTNSVKGT

T18: ET140-p17 (human, cysteine pairing not given here)
T18 construct: also called peptide 17
T18 peptide: Biotin-SGSGLHACIPCQLRCSSNT

T19: ET140-p34 (human, cysteine pairing not given here)
T19 construct: also called peptide 34
T19 peptide: Biotin-SGSGLTCQRYCNASVTNSV

T20: ET140-p18 (human, cysteine pairing not given here)
T20 construct: also called peptide 18
T20 peptide: Biotin-SGSGHACIPCQLRCSSNTP

T21: ET140-p29 (human, cysteine pairing not given here)
T21 construct: also called peptide 29
T21 peptide: Biotin-SGSGSNTPPLTCQRYCNAS

T22: ET140-p4 (human)
T22 construct: also called peptide 4
T22 peptide: Biotin-SGSGAGQCSQNEYFDSLLH

T23: ET140-p12 (human, cysteine pairing not given here)
T23 construct: also called peptide 12
T23 peptide: Biotin-SGSGYFDSLLHACIPCQLR

T24: ET140-p38 (human)
T24 construct: also called peptide 38
T24 peptide: Biotin-SGSGRYCNASVTNSVKGTN

T25: ET140-p13 (human, cysteine pairing not given here)
T25 construct: also called peptide 13
T25 peptide: Biotin-SGSGFDSLLHACIPCQLRC

T26: ET140-p14 (human, cysteine pairing not given here)
T26 construct: also called peptide 14
T26 peptide: Biotin-SGSGDSLLHACIPCQLRCS


Tests used:
Test in all cases: peptide ELISA on streptavidin plate, antibody 1 ug/mL
ET140-p23 = target: T1, ET140-p23
Description: (§1) The peptides were coated onto Streptavidin plates at 2 ug/mL in PBST (PBS+0.05% Tween-20). After washing and blocking with 3% BSA. […] “mIgG1” used in all Examples represents that the variable region is fully human and the Fc part is mouse IgG1. Then HRP anti-mouse IgG detection antibody was added to each well. Finally, the color was developed using TMB substrate. A450 was recorded for data analysis.

ET140-p28 = target: T2, ET140-p28
Description: as §1

ET140-p22 = target: T3, ET140-p22
Description: as §1

ET140-p9 = target: T4, ET140-p9
Description: as §1

ET140-p33 = target: T5, ET140-p33
Description: as §1

ET140-p21 = target: T6, ET140-p21
Description: as §1

ET140-p16 = target: T7, ET140-p16
Description: as §1

ET140-p36 = target: T8, ET140-p36
Description: as §1

ET140-p7 = target: T9, ET140-p7
Description: as §1

ET140-p32 = target: T10, ET140-p32
Description: as §1

ET140-p11 = target: T11, ET140-p11
Description: as §1

ET140-p15 = target: T12, ET140-p15
Description: as §1

ET140-p39 = target: T13, ET140-p39
Description: as §1

ET140-p10 = target: T14, ET140-p10
Description: as §1

ET140-p24 = target: T15, ET140-p24
Description: as §1

ET140-p20 = target: T16, ET140-p20
Description: as §1

ET140-p37 = target: T17, ET140-p37
Description: as §1

ET140-p17 = target: T18, ET140-p17
Description: as §1

ET140-p34 = target: T19, ET140-p34
Description: as §1

ET140-p18 = target: T20, ET140-p18
Description: as §1

ET140-p29 = target: T21, ET140-p29
Description: as §1

ET140-p4 = target: T22, ET140-p4
Description: as §1

ET140-p12 = target: T23, ET140-p12
Description: as §1

ET140-p38 = target: T24, ET140-p38
Description: as §1

ET140-p13 = target: T25, ET140-p13
Description: as §1

ET140-p14 = target: T26, ET140-p14
Description: as §1

A450 (ET140-p23)	A450 (ET140-p28)	A450 (ET140-p22)	A450 (ET140-p9)	A450 (ET140-p33)	A450 (ET140-p21)	A450 (ET140-p16)	A450 (ET140-p36)	A450 (ET140-p7)	A450 (ET140-p32)	A450 (ET140-p11)	A450 (ET140-p15)	A450 (ET140-p39)	A450 (ET140-p10)	A450 (ET140-p24)	A450 (ET140-p20)	A450 (ET140-p37)	A450 (ET140-p17)	A450 (ET140-p34)	A450 (ET140-p18)	Binder	also measured
0.101	0.093	0.111	0.087	0.084	0.077	0.263	0.085	0.075	0.092	0.085	0.276	0.074	0.087	0.325	0.081	0.083	0.146	0.07	0.105	ET140-204 mIgG1 (antibody, V domains shown, also called ET140-54 mIgG1; ET140-54) VH: EVQLVQSGAEMKKPGASLKLSCKASGYTFIDYYVYWMRQAPGQGLESMGWINPNSGGTNYAQKFQGRVTMTRDTSISTAYMELSRLRSDDTAMYYCARSQRDGYMDYWGQGTLVTVSS VL: QSALTQPASVSASPGQSIAISCTGTSSDVGWYQQHPGKAPKLMIYEDSKRPSGVSNRFSGSKSGNTASLTISGLQAEDEADYYCSSNTRSSTLVFGGGTKLTVLG	A450 (ET140-p29): 0.083; A450 (ET140-p4): 0.073; A450 (ET140-p12): 0.139; A450 (ET140-p38): 0.069; A450 (ET140-p13): 0.138; A450 (ET140-p14): 0.104
0.109	0.101	0.098	0.104	0.083	0.086	0.231	0.084	0.087	0.092	0.094	0.268	0.071	0.115	0.357	0.083	0.086	0.15	0.069	0.099	ET140-174 mIgG1 (antibody, V domains shown, also called ET140-24 mIgG1; ET140-24) VH: EVQLVQSGAEVKKPGESLKISCKGSGYSFTSYWIGWVRQMPGKGLEWMGIIYPGDSDTRYSPSFQGHVTISADKSISTAYLQWSSLKASDTAMYYCARYSGSFDNWGQGTLVTVSS VL: not shown	A450 (ET140-p29): 0.09; A450 (ET140-p4): 0.081; A450 (ET140-p12): 0.137; A450 (ET140-p38): 0.071; A450 (ET140-p13): 0.143; A450 (ET140-p14): 0.105
0.113	0.109	0.131	2.25	0.116	0.089	0.266	0.089	0.381	0.099	1.07	0.328	0.072	0.758	0.382	0.087	0.085	0.155	0.099	0.097	ET140-153 mIgG1 (antibody, V domains shown, also called ET140-3 mIgG1; ET140-3) VH: QVQLVQSGAEVKKPGSSVKVSCKASGGTFSSYAISWVRQAPGQGLEWMGRIIPILGIANYAQKFQGRVTITADKSTSTAYMELSSLRSEDTAVYYCARGGYYSHDMWSEDWGQGTLVTVSS VL: LPVLTQPPSASGTPGQRVTISCSGRSSNIGSNSVNWYRQLPGAAPKLLIYSNNQRPPGVPVRFSGSKSGTSASLAISGLQSEDEATYYCATWDDNLNVHYVFGTGTKVTVLG	A450 (ET140-p29): 0.109; A450 (ET140-p4): 0.094; A450 (ET140-p12): 2.08; A450 (ET140-p38): 0.08; A450 (ET140-p13): 1.03; A450 (ET140-p14): 0.124

Source: patent US20210346432A1 (Memorial Sloan Kettering, published 2021)
